The text below walks through data of PMC6733591.

Series [1] deals with Chaetomium thermophilum Las1 endoribonuclease (nuclease component of RNase PNK) (Chaetomium thermophilum). Kind of series: cryo-EM structure.
Series [2] concerns the target T1, ScRNase PNK (Las1-Grc3 complex) (Saccharomyces cerevisiae, UniProt P36146;Q07845 1-502;1-632).
T1 sequence 1: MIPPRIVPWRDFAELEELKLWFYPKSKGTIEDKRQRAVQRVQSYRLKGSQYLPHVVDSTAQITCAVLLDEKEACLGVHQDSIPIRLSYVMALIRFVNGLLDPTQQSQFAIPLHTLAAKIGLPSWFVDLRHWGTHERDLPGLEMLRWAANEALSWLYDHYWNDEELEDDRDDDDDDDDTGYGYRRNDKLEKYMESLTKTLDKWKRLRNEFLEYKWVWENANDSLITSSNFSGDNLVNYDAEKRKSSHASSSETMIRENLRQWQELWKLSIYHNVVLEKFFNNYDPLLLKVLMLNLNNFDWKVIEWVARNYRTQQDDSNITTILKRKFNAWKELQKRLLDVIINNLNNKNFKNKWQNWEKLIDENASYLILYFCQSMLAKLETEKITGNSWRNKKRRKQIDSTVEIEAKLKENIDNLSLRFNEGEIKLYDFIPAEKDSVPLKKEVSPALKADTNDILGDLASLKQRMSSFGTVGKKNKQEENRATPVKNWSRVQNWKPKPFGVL
T1 sequence 2: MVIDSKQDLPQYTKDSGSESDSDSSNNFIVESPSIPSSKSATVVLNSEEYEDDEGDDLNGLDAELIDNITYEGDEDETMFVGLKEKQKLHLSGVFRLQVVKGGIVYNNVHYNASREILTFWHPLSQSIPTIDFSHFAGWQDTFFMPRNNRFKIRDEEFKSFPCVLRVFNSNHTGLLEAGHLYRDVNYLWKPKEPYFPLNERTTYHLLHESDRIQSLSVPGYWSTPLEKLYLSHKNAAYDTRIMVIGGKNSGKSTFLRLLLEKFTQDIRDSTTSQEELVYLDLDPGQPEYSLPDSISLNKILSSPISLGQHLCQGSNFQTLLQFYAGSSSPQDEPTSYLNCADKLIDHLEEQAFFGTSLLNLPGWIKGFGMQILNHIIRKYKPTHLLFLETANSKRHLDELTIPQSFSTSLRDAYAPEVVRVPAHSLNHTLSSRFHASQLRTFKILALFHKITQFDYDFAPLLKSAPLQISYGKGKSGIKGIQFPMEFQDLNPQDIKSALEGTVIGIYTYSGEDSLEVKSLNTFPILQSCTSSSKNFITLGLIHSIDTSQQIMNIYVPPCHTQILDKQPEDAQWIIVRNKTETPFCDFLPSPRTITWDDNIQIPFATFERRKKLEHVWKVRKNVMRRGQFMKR
The experiment in a line: ITC.

“Chaetomium thermophilum Las1 endoribonuclease (nuclease component of RNase PNK) (enzyme)”: the stoichiometry N in series [1] is 2.

With ACGUACGCGGAAUACUUCGAA (ssRNA) [SS-RNA], the binding result in series [2] is “binds”.

B1: SC-ITS2-cleaved-RNA (SC-ITS2-3-RNA annealed to SC-ITS2-5-RNA) (dsRNA)
RNA 1: GUCGUUUUA
RNA 2: GGUUUUACCAACUGCGGC
Take B1: in series [2], the binding result is “binds”.
